Experimental data from patent US20140274782A1, “AFFINITY REAGENTS AND METHODS FOR DETECTION, PURIFICATION, AND PROTEOMIC ANALYSIS OF METHYLATED PROTEINS” (The Board of Trustees of the Leland Stanford Junior …, priority 2013, published 2014).

T1: G9a and GLP (Homo sapiens, UniProt Q96KQ7+Q9H9B1)
T1 sequence (Q96KQ7 2-1210 limits assumed): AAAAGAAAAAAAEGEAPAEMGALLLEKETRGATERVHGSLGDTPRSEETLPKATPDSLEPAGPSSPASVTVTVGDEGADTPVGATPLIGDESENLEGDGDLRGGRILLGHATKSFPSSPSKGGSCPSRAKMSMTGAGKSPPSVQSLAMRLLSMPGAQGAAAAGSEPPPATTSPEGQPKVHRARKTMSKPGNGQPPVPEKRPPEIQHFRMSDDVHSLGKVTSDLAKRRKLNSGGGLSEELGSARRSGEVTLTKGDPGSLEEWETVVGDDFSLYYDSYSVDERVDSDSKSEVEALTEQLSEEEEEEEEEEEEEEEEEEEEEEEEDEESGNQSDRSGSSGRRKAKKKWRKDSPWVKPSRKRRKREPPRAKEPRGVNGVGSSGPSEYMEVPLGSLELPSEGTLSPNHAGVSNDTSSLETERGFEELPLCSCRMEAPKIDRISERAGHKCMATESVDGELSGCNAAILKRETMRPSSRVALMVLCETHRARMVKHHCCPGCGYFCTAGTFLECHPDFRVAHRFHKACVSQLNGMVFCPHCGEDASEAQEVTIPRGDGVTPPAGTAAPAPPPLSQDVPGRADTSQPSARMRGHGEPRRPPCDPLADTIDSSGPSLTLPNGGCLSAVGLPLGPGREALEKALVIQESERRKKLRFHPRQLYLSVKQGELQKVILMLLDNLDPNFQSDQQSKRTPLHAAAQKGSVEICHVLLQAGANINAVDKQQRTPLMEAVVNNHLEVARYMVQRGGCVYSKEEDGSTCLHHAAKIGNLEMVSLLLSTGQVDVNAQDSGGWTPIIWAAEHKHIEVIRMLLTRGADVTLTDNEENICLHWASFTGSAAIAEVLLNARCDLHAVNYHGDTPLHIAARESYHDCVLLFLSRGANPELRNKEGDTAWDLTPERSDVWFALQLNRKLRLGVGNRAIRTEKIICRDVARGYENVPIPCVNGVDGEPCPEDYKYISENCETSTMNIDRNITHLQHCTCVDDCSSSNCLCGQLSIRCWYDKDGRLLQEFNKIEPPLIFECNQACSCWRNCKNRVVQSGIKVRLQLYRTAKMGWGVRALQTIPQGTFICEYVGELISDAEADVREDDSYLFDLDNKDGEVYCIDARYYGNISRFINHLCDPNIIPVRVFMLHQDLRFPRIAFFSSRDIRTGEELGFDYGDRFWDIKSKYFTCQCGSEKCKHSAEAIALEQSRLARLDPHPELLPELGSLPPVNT
T1 sequence (Q9H9B1 2-1298 limits assumed): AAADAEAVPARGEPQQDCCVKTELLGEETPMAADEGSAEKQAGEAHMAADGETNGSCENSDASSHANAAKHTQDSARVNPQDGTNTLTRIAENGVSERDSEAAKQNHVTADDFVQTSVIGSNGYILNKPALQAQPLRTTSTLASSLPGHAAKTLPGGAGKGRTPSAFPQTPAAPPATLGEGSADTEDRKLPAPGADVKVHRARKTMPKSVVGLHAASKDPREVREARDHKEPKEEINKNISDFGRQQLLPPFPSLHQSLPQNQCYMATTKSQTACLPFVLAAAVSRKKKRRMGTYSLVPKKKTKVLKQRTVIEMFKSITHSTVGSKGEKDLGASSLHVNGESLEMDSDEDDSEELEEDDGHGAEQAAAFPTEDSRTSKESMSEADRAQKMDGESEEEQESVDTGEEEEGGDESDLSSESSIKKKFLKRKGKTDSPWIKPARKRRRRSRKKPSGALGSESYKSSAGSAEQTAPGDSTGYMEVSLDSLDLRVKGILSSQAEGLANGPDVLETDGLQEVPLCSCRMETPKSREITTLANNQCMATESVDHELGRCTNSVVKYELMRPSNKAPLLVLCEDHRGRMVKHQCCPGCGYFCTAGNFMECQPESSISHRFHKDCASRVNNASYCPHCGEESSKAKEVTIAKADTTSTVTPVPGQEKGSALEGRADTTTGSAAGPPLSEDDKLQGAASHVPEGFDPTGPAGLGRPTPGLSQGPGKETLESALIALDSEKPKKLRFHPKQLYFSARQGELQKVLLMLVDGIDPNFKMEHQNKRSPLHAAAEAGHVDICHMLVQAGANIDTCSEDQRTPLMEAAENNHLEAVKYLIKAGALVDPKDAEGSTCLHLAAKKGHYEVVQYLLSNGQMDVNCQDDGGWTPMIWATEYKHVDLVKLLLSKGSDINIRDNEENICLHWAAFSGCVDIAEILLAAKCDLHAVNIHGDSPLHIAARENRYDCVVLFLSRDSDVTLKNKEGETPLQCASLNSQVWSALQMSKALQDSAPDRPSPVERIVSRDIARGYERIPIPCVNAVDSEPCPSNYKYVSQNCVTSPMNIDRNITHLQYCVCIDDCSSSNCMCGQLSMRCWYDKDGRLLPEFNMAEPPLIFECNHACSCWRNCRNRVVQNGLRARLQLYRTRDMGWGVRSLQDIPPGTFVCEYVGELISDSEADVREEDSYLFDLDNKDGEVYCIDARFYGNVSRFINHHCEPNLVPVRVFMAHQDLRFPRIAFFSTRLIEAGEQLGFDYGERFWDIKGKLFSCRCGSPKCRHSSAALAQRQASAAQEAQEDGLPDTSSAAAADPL


Experiments:
3×MBT domain of L3MBTL1 = assay: Triple SILAC pull-down, 3xMBT/3xMBTD355N ratio (cytoplasmic, nuclear and chromatin fractions of 293T cells); assay type: binding, human; conditions: for 3xMBT/D355N UNC Heavy: experiment with UNC0638 in heavy SILAC media; for 3xMBT/D355N UNC Light: experiment with UNC0638 in light SILAC media;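 as to all read-outs here: proteins quantified with MaxQuant, requiring at least two unique peptides and quantification in both label directions, normalized to the mean of proteins from a digested loading control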
G9a and GLP = target: T1, G9a and GLP; assay: Triple SILAC pull-down after UNC0638 treatment of 293T cells, DMSO/UNC0638 ratio of protein captured by 3×MBT; assay type: cell-based; design: cells were treated for 24 hours with UNC0638 at 2.5 μM or DMSO vehicle control; endogenous in cells; host or cells: HEK 293T; conditions: for Relative to UNC0638 UNC Heavy: UNC0638 in heavy SILAC media; for Relative to UNC0638 UNC Light: UNC0638 in light SILAC media; for Relative to UNC0638 Average: average of UNC Light and UNC Heavy experiments;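 as to all read-outs here: mass spectrometry (Q-Exactive) SILAC quantitation, DMSO/UNC0638 ratio computed after subtracting 3×MBTD355N mutant pull-down background, only proteins with at least twofold 3×MBT over mutant signal considered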
[1] = SILAC ratio, pull-down 3xMBT vs 3xMBTD355N
[2] = SILAC ratio DMSO/UNC0638 of protein pulled down with 3xMBT
[3] = SILAC ratio 3xMBT vs 3xMBTD355N pull-down, 293T cells, all values in log base 2
[4] = SILAC ratio DMSO relative to UNC0638, pull-down with 3xMBT, all values in log base 2

Row | Relative to UNC0638 UNC Heavy (G9a and GLP; [2]) [log base 2] | Relative to UNC0638 UNC Light (G9a and GLP; [2]) [log base 2] | Relative to UNC0638 Average (G9a and GLP) [log base 2] | Relative to UNC0638 UNC Heavy (G9a and GLP; [4]) [log base 2] | Relative to UNC0638 UNC Light (G9a and GLP; [4]) [log base 2] | Relative to UNC0638 Average (G9a and GLP; all values in log base 2) [log base 2] | Molecule | 3xMBT/D355N UNC Heavy (3×MBT domain of L3MBTL1; [1]) [log base 2] | 3xMBT/D355N UNC Light (3×MBT domain of L3MBTL1; [1]) [log base 2] | 3xMBT/D355N UNC Heavy (3×MBT domain of L3MBTL1; [3]) [log base 2] | 3xMBT/D355N UNC Light (3×MBT domain of L3MBTL1; [3]) [log base 2]
1 | 3.21 | −2.20 | 0.50 |  |  |  | GAPDHS (protein, UniProt O14556 1-408, looked up) Glyceraldehyde-3-phosphate …: MSKRDIVLTNVTVVQLLRQPCPVTRAPPPPEPKAEVEPQPQPEPTPVREEIKPPPPPLPPHPATPPPKMVSVARELTVGINGFGRIGRLVLRACMEKGVKVVAVNDPFIDPEYMVYMFKYDSTHGRYKGSVEFRNGQLVVDNHEISVYQCKEPKQIPWRAVGSPYVVESTGVYLSIQAASDHISAGAQRVVISAPSPDAPMFVMGVNENDYNPGSMNIVSNASCTTNCLAPLAKVIHERFGIVEGLMTTVHSYTATQKTVDGPSRKAWRDGRGAHQNIIPASTGAAKAVTKVIPELKGKLTGMAFRVPTPDVSVVDLTCRLAQPAPYSAIKEAVKAAAKGPMAGILAYTEDEVVSTDFLGDTHSSIFDAKAGIALNDNFVKLISWYDNEYGYSHRVVDLLRYMFSRDK | 3.31 | 1.73 |  | 
2 |  |  |  | 0.18 | 0.03 | 0.10 | MCM5 (protein, UniProt P33992 2-734, looked up) DNA replication licensing …: SGFDDPGIFYSDSFGGDAQADEGQARKSQLQRRFKEFLRQYRVGTDRTGFTFKYRDELKRHYNLGEYWIEVEMEDLASFDEDLADYLYKQPAEHLQLLEEAAKEVADEVTRPRPSGEEVLQDIQVMLKSDASPSSIRSLKSDMMSHLVKIPGIIIAASAVRAKATRISIQCRSCRNTLTNIAMRPGLEGYALPRKCNTDQAGRPKCPLDPYFIMPDKCKCVDFQTLKLQELPDAVPHGEMPRHMQLYCDRYLCDKVVPGNRVTIMGIYSIKKFGLTTSRGRDRVGVGIRSSYIRVLGIQVDTDGSGRSFAGAVSPQEEEEFRRLAALPNVYEVISKSIAPSIFGGTDMKKAIACLLFGGSRKRLPDGLTRRGDINLLMLGDPGTAKSQLLKFVEKCSPIGVYTSGKGSSAAGLTASVMRDPSSRNFIMEGGAMVLADGGVVCIDEFDKMREDDRVAIHEAMEQQTISIAKAGITTTLNSRCSVLAAANSVFGRWDETKGEDNIDFMPTILSRFDMIFIVKDEHNEERDVMLAKHVITLHVSALTQTQAVEGEIDLAKLKKFIAYCRVKCGPRLSAEAAEKLKNRYIIMRSGARQHERDSDRRSSIPITVRQLEAIVRIAEALSKMKLQPFATEADVEEALRLFQVSTLDAALSGTLSGVEGFTSQEDQEMLSRIEKQLKRRFAIGSQVSEHSIIKDFTKQKYPEHAIHKVLQLMLRRGEIQHRMQRKVLYRLK |  |  | 2.23 | 2.79
3 |  |  |  | 0.22 | −0.01 | 0.11 | SEC23A (protein, UniProt Q15436 2-765, looked up) Protein transport protein …: TTYLEFIQQNEERDGVRFSWNVWPSSRLEATRMVVPVAALFTPLKERPDLPPIQYEPVLCSRTTCRAVLNPLCQVDYRAKLWACNFCYQRNQFPPSYAGISELNQPAELLPQFSSIEYVVLRGPQMPLIFLYVVDTCMEDEDLQALKESMQMSLSLLPPTALVGLITFGRMVQVHELGCEGISKSYVFRGTKDLSAKQLQEMLGLSKVPLTQATRGPQVQQPPPSNRFLQPVQKIDMNLTDLLGELQRDPWPVPQGKRPLRSSGVALSIAVGLLECTFPNTGARIMMFIGGPATQGPGMVVGDELKTPIRSWHDIDKDNAKYVKKGTKHFEALANRAATTGHVIDIYACALDQTGLLEMKCCPNLTGGYMVMGDSFNTSLFKQTFQRVFTKDMHGQFKMGFGGTLEIKTSREIKISGAIGPCVSLNSKGPCVSENEIGTGGTCQWKICGLSPTTTLAIYFEVVNQHNAPIPQGGRGAIQFVTQYQHSSGQRRIRVTTIARNWADAQTQIQNIAASFDQEAAAILMARLAIYRAETEEGPDVLRWLDRQLIRLCQKFGEYHKDDPSSFRFSETFSLYPQFMFHLRRSSFLQVFNNSPDESSYYRHHFMRQDLTQSLIMIQPILYAYSFSGPPEPVLLDSSSILADRILLMDTFFQILIYHGETIAQWRKSGYQDMPEYENFRHLLQAPVDDAQEILHSRFPMPRYIDTEHGGSQARFLLSKVNPSQTHNNMYAWGQESGAPILTDDVSLQVFMDHLKKLAVSSAA |  |  | 2.56 | 3.17
4 |  |  |  | 0.13 | 0.07 | 0.10 | PRMT3 (protein, UniProt O60678 2-531, looked up) Protein arginine …: CSLASGATGGRGAVENEEDLPELSDSGDEAAWEDEDDADLPHGKQQTPCLFCNRLFTSAEETFSHCKSEHQFNIDSMVHKHGLEFYGYIKLINFIRLKNPTVEYMNSIYNPVPWEKEEYLKPVLEDDLLLQFDVEDLYEPVSVPFSYPNGLSENTSVVEKLKHMEARALSAEAALARAREDLQKMKQFAQDFVMHTDVRTCSSSTSVIADLQEDEDGVYFSSYGHYGIHEEMLKDKIRTESYRDFIYQNPHIFKDKVVLDVGCGTGILSMFAAKAGAKKVLGVDQSEILYQAMDIIRLNKLEDTITLIKGKIEEVHLPVEKVDVIISEWMGYFLLFESMLDSVLYAKNKYLAKGGSVYPDICTISLVAVSDVNKHADRIAFWDDVYGFKMSCMKKAVIPEAVVEVLDPKTLISEPCGIKHIDCHTTSISDLEFSSDFTLKITRTSMCTAIAGYFDIYFEKNCHNRVVFSTGPQSTKTHWKQTVFLLEKPFSVKAGEALKGKVTVHKNKKDPRSLTVTLTLNNSTQTYGLQ |  |  | 1.71 | 2.05
